Measurements published in article PMC6774274, “Engineering a Seven Enzyme Biotransformation using Mathematical Modelling and Characterized Enzyme Parts” (Chemcatchem, 2019).

Experiments:
mpCAR [1] = biological target: T1, mpCAR (Mycolicibacterium phlei, UniProt A0A5N5VEC4); assay: NADPH oxidation at […] nm, two-substrate fit; format: biochemical; conditions: kinetic constant for ATP in the ordered rate equation, not an inhibition constant; otherwise as row above
T1 construct: gene car; N-terminal 6xHis tag, pNIC28-Bsa4, E. coli BL21(DE3); co-expressed with Bacillus subtilis phosphopantetheine transferase; gene from genomic DNA
T1 sequence (A0A5N5VEC4 1-1162): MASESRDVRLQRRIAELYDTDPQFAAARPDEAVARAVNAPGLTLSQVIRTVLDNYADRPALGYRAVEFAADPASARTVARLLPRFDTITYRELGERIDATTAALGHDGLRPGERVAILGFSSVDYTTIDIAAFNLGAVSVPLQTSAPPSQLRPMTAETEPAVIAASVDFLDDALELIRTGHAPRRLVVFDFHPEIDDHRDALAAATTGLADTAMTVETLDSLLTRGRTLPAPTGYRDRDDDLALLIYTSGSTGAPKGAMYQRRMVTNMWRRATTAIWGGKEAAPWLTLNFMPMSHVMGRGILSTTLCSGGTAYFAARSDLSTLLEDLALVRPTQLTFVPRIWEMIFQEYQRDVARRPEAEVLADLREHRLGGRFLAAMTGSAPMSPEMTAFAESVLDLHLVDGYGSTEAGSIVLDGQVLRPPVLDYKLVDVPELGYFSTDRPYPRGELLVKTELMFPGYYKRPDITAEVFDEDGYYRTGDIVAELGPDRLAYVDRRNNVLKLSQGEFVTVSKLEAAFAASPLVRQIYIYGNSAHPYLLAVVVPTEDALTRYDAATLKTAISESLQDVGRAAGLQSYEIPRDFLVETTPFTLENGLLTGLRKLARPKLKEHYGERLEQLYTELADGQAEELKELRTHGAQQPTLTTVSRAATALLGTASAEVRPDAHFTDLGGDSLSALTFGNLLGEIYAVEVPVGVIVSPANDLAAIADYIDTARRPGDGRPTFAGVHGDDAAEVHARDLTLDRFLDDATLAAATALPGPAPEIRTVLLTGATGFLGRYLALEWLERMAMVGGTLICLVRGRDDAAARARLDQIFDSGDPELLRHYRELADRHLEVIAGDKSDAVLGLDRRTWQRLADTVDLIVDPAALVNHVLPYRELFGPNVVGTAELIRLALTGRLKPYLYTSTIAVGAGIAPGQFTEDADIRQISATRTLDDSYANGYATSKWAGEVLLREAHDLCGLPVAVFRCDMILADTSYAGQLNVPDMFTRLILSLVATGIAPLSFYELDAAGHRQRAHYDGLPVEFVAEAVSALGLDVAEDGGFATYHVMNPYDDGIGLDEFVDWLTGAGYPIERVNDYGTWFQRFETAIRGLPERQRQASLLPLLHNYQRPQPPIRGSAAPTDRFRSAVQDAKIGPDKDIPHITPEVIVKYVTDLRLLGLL

mpCAR [2] = biological target: T1, mpCAR; assay: inhibition of CAR reaction; format: biochemical; conditions: read-out: K I-ADP
Source text: inhibition of CAR reaction on mpCAR

[3] = substrate: Nc1ncnc2c1ncn2[C@@H]1O[C@H](COP(=O)(O)O)[C@@H](O)[C@H]1O; assay: ADP-Glo kinase assay, luminescence; format: biochemical, Thermodesulfobium narugense; conditions: polyphosphate co-substrate (12.5 mM PO3 units), 20 or 40 mM MgCl2, 100 mM Tris-HCl pH 7.5, 15 min
Source text: ADP-Glo kinase assay, luminescence on tnPAP

purified protein [4] = substrate: Cc1ccc(C(=O)O)cc1; assay: purified protein; conditions: 0.25 mM NADPH, 10 mM MgCl2, varied ATP, 100 mM Tris-HCl pH 7.5, 30 °C
purified protein [5] = substrate: NC(=O)C1=CN([C@@H]2O[C@H](COP(=O)(O)OP(=O)(O)OC[C@H]3O[C@@H](n4cnc5c(N)ncnc54)[C@H](OP(=O)(O)O)[C@@H]3O)[C@@H](O)[C@H]2O)C=CC1; assay: purified protein; format: biochemical, Mycolicibacterium phlei; conditions: 10 mM MgCl2, 1 mM ATP, 10 mM 4-toluic acid, 100 mM Tris-HCl pH 7.5, 30 °C, varied: cofactor
purified protein [6] = substrate: Nc1ncnc2c1ncn2[C@@H]1O[C@H](COP(=O)(O)OP(=O)(O)OP(=O)(O)O)[C@@H](O)[C@H]1O; assay: purified protein; format: biochemical, Mycolicibacterium phlei; conditions: 0.25 mM NADPH, 10 mM MgCl2, varied 4-toluic acid, 100 mM Tris-HCl pH 7.5, 30 °C

Nc1ncnc2c1ncn2[C@@H]1O[C@H](COP(=O)(O)OP(=O)(O)OP(=O)(O)O)[C@@H](O)[C@H]1O [ATP]
K I-ATP (mpCAR [1]): 0.04 ± 0.034 mM

Nc1ncnc2c1ncn2[C@@H]1O[C@H](COP(=O)(O)OP(=O)(O)O)[C@@H](O)[C@H]1O [ADP]
Ki (mpCAR [2]): 11 mM

B1: tnPAP (Thermodesulfobium narugense DSM 14796) (protein)
chain: MLEKVDLNKIMDREDYKKEFDNLSIELGALQREARDLKLPIIIVFDGFEAAGKGTLINKLMLPLDPRGYDVIKRFECPSETDNRPYFYKFWKTIPKRGDISIVNESWYKALLSDRVLKKTSPEIVEYLFDEILSFEGQLVADGYLIVKFFLYISEEEQKDRLKKLKKNKDESWRVTDDVLKLHKKYKKFLDAAETVFEKTDTAFAPWTIIEATDKRYATIKIFKTLIEAIKFKIKAIKEKEELPSFENFYPVNELSSLSKIDLNKSLTYEEYIEKLHPLQREIHDLQYRLWKERVPVIVAFEGWDAAGKGGSIKRLTEAMDPRGYTVIPIGAPNEYELAHHYLWRFWQNVPEKGNIAIFDRTWYGRVLVERVEKLCKDFDWQRAYGEIKQMEKQFTNFGIVLLKFWLHIDKKTQLERFEEREKNPFKHWKITEDDWRNRSKWDDYLPAVEEMLIRTSTAEAPWNIIEANDKYFARIKVLETFVNKIKEKLN
notes: N-terminal 6xHis tag, codon-optimised, pNIC28-Bsa4, E. coli
Km [3]: 280 ± 240 µM | kcat [3]: 4.17 ± 2.08 s⁻¹

B2: mpCAR (Mycolicibacterium phlei DSM 43239 = CCUG 21000) (protein)
chain: T1 sequence (A0A5N5VEC4 1-1162)
notes: N-terminal 6xHis tag, pNIC28-Bsa4, E. coli BL21(DE3); co-expressed with Bacillus subtilis phosphopantetheine transferase; gene from genomic DNA
Km (purified protein [4]): 1,500±320 μM | kcat (purified protein [4]): 3.33 ± 0.333 s⁻¹ | Km (purified protein [5]): 30 ± 8 µM | kcat (purified protein [5]): 3.33 ± 0.333 s⁻¹ | Km (purified protein [6]): 100 ± 28 µM | kcat (purified protein [6]): 3.33 ± 0.333 s⁻¹
